Reference: article PMC4660213, “Identification and characterization of multiple rubisco activases in chemoautotrophic bacteria” (Nature Communications, 2015)
One block for each substance: values may come before it.

Key:
[1] = biological target: Acidithiobacillus ferrooxidans form I rubisco (L8S8) (Acidithiobacillus ferrooxidans ATCC 23270) (UniProt B7JA24)
[2] = biological target: Acidithiobacillus ferrooxidans CbbQ2 (Acidithiobacillus ferrooxidans ATCC 23270) (UniProt B7J5E4)
[3] = biological target: Acidithiobacillus ferrooxidans CbbQ2 (Acidithiobacillus ferrooxidans ATCC 23270) (UniProt B7J5E4); test: quantitative densitometry of SDS-PAGE; Coomassie-stained SDS–PAGE of the purified complexes (4 µg per lane), assuming equal binding of the dye
[4] = biological target: Acidithiobacillus ferrooxidans CbbQ2 (Acidithiobacillus ferrooxidans ATCC 23270) (UniProt B7J5E4); test: SEC + other: glycerol gradient sedimentation; combined Stokes radius/sedimentation analysis: Stokes radius from gel filtration, Svedberg coefficient from 5–30% glycerol gradients in buffer A (1 mg/ml, 35,000 r.p.m., 16 h, 4 °C); M=4,205 (SRs)
[5] = biological target: Acidithiobacillus ferrooxidans form II rubisco (Acidithiobacillus ferrooxidans ATCC 23270) (UniProt B7J5E3)
[6] = biological target: AfM with E75 mutated to alanine (Acidithiobacillus ferrooxidans ATCC 23270)

stimulation of Q1O1 ATPase activity (0.27 µM oligomer) by saturating concentrations of stably inhibited AfLS (ER, ECMC) [1]: 2 fold
Substance: CbbQ1-CbbO1 hetero-oligomer (CbbQ6CbbO1) (complex)

basal ATPase activity of the Q2O2ΔC444 complex (min^−1 protomer CbbQ^−1) [2]: < 1
stoichiometry N (CbbO fragments per 6 CbbQ subunits) [3]: 3.5
stoichiometry N (CbbO fragment per CbbQ hexamer) [4]: 1
Substance: C-terminally truncated CbbO2 (residues 1–444) (domain or fragment)

stimulation of Q2O2 ATPase activity (0.27 µM oligomer) by saturating concentrations of stably inhibited AfM (ER, ECMC) [5]: 20 fold
rubisco activase activity of Q2O2 on AfM with E75 mutated to alanine [6]: 80 % reduction
Substance: CbbQ2-CbbO2 hetero-oligomer (CbbQ6CbbO1) (complex)
